1 substance from patent publication US20090226474A1, “Antibodies as T cell receptor mimics, methods of production and uses thereof” (priority 2004, published 2009) can be followed below.

Test [1] has as its target GVL peptide-HLA-A2 complex (human). Kind of test: cell-based or functional assay.
Test [2] has the same target. Kind of test: flow cytometry, T2 cells pulsed with 50 to 0.1 µg/ml GVL peptide. (A flow cytometer gives signals particle by particle.)

As to BB7.2 mAb (antibody), the CDC of T2 cells pulsed with 50 to 0.1 µg/ml GVL peptide, antibody 10 µg/ml in test [1] lay within 53 to 70%. Moreover, the MFI in test [2] lay within 250 to 350 MFI.
